Assay results reported in US20240279333A1 (SYSTIMMUNE, published 2024).

Tests used:
[1] = target: T1, full length human ROR1 stably expressed on CHO cells (human, UniProt Q01973 30-937); experiment: FACS on CHO cells stably expressing full length human ROR1, PE goat anti-human IgG Fc secondary; y axis without label
T1 construct: whole, on cells; also called ROR1-CHO cells; human ROR1 transfected CHO cells

[2] = target: T2, human PD-L1 on transfected CHO cells (human, UniProt Q9NZQ7 19-290); experiment: FACS on human PD-L1 transfected CHO cells, PE goat anti-human IgG Fc secondary; y axis without label
T2 construct: whole, on cells; also called PD-L1 expressing CHO cells; human PD-L1 transfected CHO cells

[3] = target: T3, human 4-1BB on transfected CHO cells (human, UniProt Q07011 24-255); experiment: FACS on human 4-1BB transfected CHO cells, PE goat anti-human IgG Fc secondary; y axis without label
T3 construct: whole, on cells; also called 41BB expressing CHO cells; human 41BB transfected CHO cells

[4] = target: PD-L1 protein antigen (immobilized on the sensor) (UniProt Q9NZQ7 19-238, limits assumed); experiment: Octet RED96, antigen immobilized
[5] = target: 4-1BB protein antigen (immobilized on the sensor) (UniProt Q07011 24-186, limits assumed); experiment: Octet RED96, antigen immobilized
[6] = target: T4, CD3 e/d antigen (immobilized on the sensor) (UniProt P07766 23-126; P04234 22-105); experiment: Octet RED96, antigen immobilized
T4 construct: 'e/d' read as epsilon/delta; construct not described

| binding result [1] | binding result [2] | binding result [3] | Kd [4] [nM] | Response [4] | koff [4] [s⁻¹] | kon [4] [M⁻¹ s⁻¹] | Kd [5] [nM] | Response [5] | koff [5] [s⁻¹] | kon [5] [M⁻¹ s⁻¹] | Kd [6] [nM] | Response [6] | koff [6] [s⁻¹] | kon [6] [M⁻¹ s⁻¹] | Binder |
| --- | --- | --- | --- | --- | --- | --- | --- | --- | --- | --- | --- | --- | --- | --- | --- |
| binds | binds | binds | – | – | – | – | – | – | – | – | – | – | – | – | SI-35E18 (460C3-L1H1-scFv x PL230C6-Fab x 323H7-H4L1-scFv x 284A10-H1L1-scFv) (antibody, human IgG1, kappa, Tetra-specific antibody, symmetric dimer) heavy: not shown light: AYDMTQSPSSVSASVGDRVTIKCQASEDIYSFLAWYQQKPGKAPKLLIHSASSLASGVPSRFSGSGSGTDFTLTISSLQPEDFATYYCQQGYGKNNVDNAFGGGTKVEIKRTVAAPSVFIFPPSDEQLKSGTASVVCLLNNFYPREAKVQWKVDNALQSGNSQESVTEQDSKDSTYSLSSTLTLSKADYEKHKVYACEVTHQGLSSPVTKSFNRGEC |
| – | – | – | 0.0801 | 1.92 | 3.32e-05 | 415000 | 0.117 | 2.47 | 2.65e-05 | 227000 | < 0.001 | 1.8 | < 1e-07 | 104000 | SI-39E13 (420H5 x PL230 x 284A10 x 806) (antibody, human IgG1, kappa, Tetra-specific antibody, symmetric dimer) heavy: not shown light: AYDMTQSPSSVSASVGDRVTIKCQASEDIYSFLAWYQQKPGKAPKLLIHSASSLASGVPSRFSGSGSGTDFTLTISSLQPEDFATYYCQQGYGKNNVDNAFGGGTKVEIKRTVAAPSVFIFPPSDEQLKSGTASVVCLLNNFYPREAKVQWKVDNALQSGNSQESVTEQDSKDSTYSLSSTLTLSKADYEKHKVYACEVTHQGLSSPVTKSFNRGEC |
| no binding (tested: 10 nM) | – | – | – | – | – | – | – | – | – | – | – | – | – | – | SI-35E24 (460C3 x PL230C6 x 330F11 x 284A10) (antibody, human IgG1, kappa, Tetra-specific antibody, symmetric dimer; also called SI-3524) heavy: not shown light: AYDMTQSPSSVSASVGDRVTIKCQASEDIYSFLAWYQQKPGKAPKLLIHSASSLASGVPSRFSGSGSGTDFTLTISSLQPEDFATYYCQQGYGKNNVDNAFGGGTKVEIKRTVAAPSVFIFPPSDEQLKSGTASVVCLLNNFYPREAKVQWKVDNALQSGNSQESVTEQDSKDSTYSLSSTLTLSKADYEKHKVYACEVTHQGLSSPVTKSFNRGEC |
| – | – | – | 0.0402 | 1.9 | 1.94e-05 | 483000 | 0.696 | 2.02 | 0.000141 | 203000 | 0.207 | 2.65 | 2.54e-05 | 123000 | SI-39E23 (PL230 x 806 x 420H5 x 284A10) (antibody, Tetra-specific antibody, symmetric dimer) heavy: not shown light: DILMTQSPSSMSVSLGDTVSITCHSSQDINSNIGWLQQRPGKSFKGLIYHGTNLDDEVPSRFSGSGSGADYSLTISSLESEDFADYYCVQYAQFPWTFGGGTKLEIKRTVAAPSVFIFPPSDEQLKSGTASVVCLLNNFYPREAKVQWKVDNALQSGNSQESVTEQDSKDSTYSLSSTLTLSKADYEKHKVYACEVTHQGLSSPVTKSFNRGEC |
| – | – | – | 0.283 | 1.72 | 0.000106 | 376000 | – | – | – | – | 0.475 | 1.85 | 7.86e-05 | 166000 | SI-39E29 (806 x 284A10 x PL221 x 420H5) (antibody, Tetra-specific antibody, symmetric dimer) heavy: not shown light: DVVMTQSPSTLSASVGDRVTINCQASESISSWLAWYQQKPGKAPKLLIYEASKLASGVPSRFSGSGSGTEFTLTISSLQPDDFATYYCQGYFYFISRTYVNSFGGGTKVEIKRTVAAPSVFIFPPSDEQLKSGTASVVCLLNNFYPREAKVQWKVDNALQSGNSQESVTEQDSKDSTYSLSSTLTLSKADYEKHKVYACEVTHQGLSSPVTKSFNRGEC |

Second part, the binder before the results:

| Binder | binding result [1] | binding result [2] | binding result [3] | Kd [4] [nM] | Response [4] | koff [4] [s⁻¹] | kon [4] [M⁻¹ s⁻¹] | Kd [5] [nM] | Response [5] | koff [5] [s⁻¹] | kon [5] [M⁻¹ s⁻¹] | Kd [6] [nM] | Response [6] | koff [6] [s⁻¹] | kon [6] [M⁻¹ s⁻¹] |
| --- | --- | --- | --- | --- | --- | --- | --- | --- | --- | --- | --- | --- | --- | --- | --- |
| SI-39E10 (420H5 x PL230 x 806 x 284A10) (antibody, human IgG1, kappa, Tetra-specific antibody, symmetric dimer) heavy: not shown light: AYDMTQSPSSVSASVGDRVTIKCQASEDIYSFLAWYQQKPGKAPKLLIHSASSLASGVPSRFSGSGSGTDFTLTISSLQPEDFATYYCQQGYGKNNVDNAFGGGTKVEIKRTVAAPSVFIFPPSDEQLKSGTASVVCLLNNFYPREAKVQWKVDNALQSGNSQESVTEQDSKDSTYSLSSTLTLSKADYEKHKVYACEVTHQGLSSPVTKSFNRGEC | – | – | – | 0.0685 | 1.94 | 2.61e-05 | 381000 | 0.0356 | 2.63 | 7.43e-06 | 209000 | < 0.001 | 2.24 | < 1e-07 | 110000 |
| SI-35E26 (466F6 x PL230C6 x 330F11 x 284A10) (antibody, human IgG1, kappa, Tetra-specific antibody, symmetric dimer; also called '26' in 'SI-3524, 25, and 26') heavy: not shown light: AYDMTQSPSSVSASVGDRVTIKCQASEDIYSFLAWYQQKPGKAPKLLIHSASSLASGVPSRFSGSGSGTDFTLTISSLQPEDFATYYCQQGYGKNNVDNAFGGGTKVEIKRTVAAPSVFIFPPSDEQLKSGTASVVCLLNNFYPREAKVQWKVDNALQSGNSQESVTEQDSKDSTYSLSSTLTLSKADYEKHKVYACEVTHQGLSSPVTKSFNRGEC | no binding (tested: 10 nM) | – | – | – | – | – | – | – | – | – | – | – | – | – | – |
| SI-35E25 (420H5 x PL230C6 x 330F11 x 284A10) (antibody, human IgG1, kappa, Tetra-specific antibody, symmetric dimer; also called '25' in 'SI-3524, 25, and 26') heavy: not shown light: AYDMTQSPSSVSASVGDRVTIKCQASEDIYSFLAWYQQKPGKAPKLLIHSASSLASGVPSRFSGSGSGTDFTLTISSLQPEDFATYYCQQGYGKNNVDNAFGGGTKVEIKRTVAAPSVFIFPPSDEQLKSGTASVVCLLNNFYPREAKVQWKVDNALQSGNSQESVTEQDSKDSTYSLSSTLTLSKADYEKHKVYACEVTHQGLSSPVTKSFNRGEC | no binding (tested: 10 nM) | – | – | – | – | – | – | – | – | – | – | – | – | – | – |
| SI-39E4 (PL230 x 806 x 284A10 x 420H5) (antibody, Tetra-specific antibody, symmetric dimer; also called SI-39E04; 39 E04) heavy: not shown light: DILMTQSPSSMSVSLGDTVSITCHSSQDINSNIGWLQQRPGKSFKGLIYHGTNLDDEVPSRFSGSGSGADYSLTISSLESEDFADYYCVQYAQFPWTFGGGTKLEIKRTVAAPSVFIFPPSDEQLKSGTASVVCLLNNFYPREAKVQWKVDNALQSGNSQESVTEQDSKDSTYSLSSTLTLSKADYEKHKVYACEVTHQGLSSPVTKSFNRGEC | – | – | – | 0.0723 | 2.15 | 2.41e-05 | 333000 | 0.354 | 2.42 | 5.91e-05 | 167000 | < 0.001 | 1.97 | < 1e-07 | 86100 |
| SI-39E18 (284A10 x 806 x PL221 x 420H5) (antibody, Tetra-specific antibody, symmetric dimer) heavy: not shown light: DILMTQSPSSMSVSLGDTVSITCHSSQDINSNIGWLQQRPGKSFKGLIYHGTNLDDEVPSRFSGSGSGADYSLTISSLESEDFADYYCVQYAQFPWTFGGGTKLEIKRTVAAPSVFIFPPSDEQLKSGTASVVCLLNNFYPREAKVQWKVDNALQSGNSQESVTEQDSKDSTYSLSSTLTLSKADYEKHKVYACEVTHQGLSSPVTKSFNRGEC | – | – | – | 0.168 | 1.83 | 6.37e-05 | 379000 | 0.393 | 2.02 | 9.24e-05 | 235000 | 0.632 | 1.76 | 0.00011 | 174000 |
